Measured values as given in article doi:10.1101/2020.04.21.053124.

Target: MVI Spring bZip (1-914) (UniProt Q9UM54)
Assay: SEC

MVI Spring bZip (1-914) (from UniProt Q9UM54 1-914)
stoichiometry N: 2
